The record followed here is patent US20120244144A1 (University of Texas, published 2012).

Where a chain is given by its changes, count along the chain named.

Assay in all cases: SPR, mAb 1B7 immobilised ~1000 RU
One assay concerns the target T1, PTx-S1-220 E155A (Bordetella pertussis strain Tohama I, UniProt P04977 36-255, E155A).
T1 sequence: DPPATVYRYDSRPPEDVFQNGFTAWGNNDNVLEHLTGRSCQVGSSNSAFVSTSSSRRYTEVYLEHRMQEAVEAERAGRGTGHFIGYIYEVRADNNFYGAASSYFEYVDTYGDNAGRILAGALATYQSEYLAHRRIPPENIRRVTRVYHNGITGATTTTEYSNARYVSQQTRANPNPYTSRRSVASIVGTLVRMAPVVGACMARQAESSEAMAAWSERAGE

The next assay concerns the target T2, PTx-S1-220 E210A (Bordetella pertussis strain Tohama I, UniProt P04977 36-255, E210A).
T2 sequence: T1 sequence with A154E, E209A

The target in another assay is T3, PTx-S1-220 E16A (Bordetella pertussis strain Tohama I, UniProt P04977 36-255, E16A).
T3 sequence: T1 sequence with E15A, A154E

Another assay has as its target T4, PTx-S1-220 T81A (Bordetella pertussis strain Tohama I, UniProt P04977 36-255, T81A).
T4 sequence: T1 sequence with T80A, A154E

The target in another assay is T5, PTx-S1-220 T158A (Bordetella pertussis strain Tohama I, UniProt P04977 36-255, T158A).
T5 sequence: T1 sequence with A154E, T157A

The target of the next assay is T6, PTx-S1-220 Y166A (Bordetella pertussis strain Tohama I, UniProt P04977 36-255, Y166A).
T6 sequence: T1 sequence with A154E, Y165A

For another assay, the target named is T7, PTx-S1-220 R39A (Bordetella pertussis strain Tohama I, UniProt P04977 36-255, R39A).
T7 sequence: T1 sequence with R38A, A154E

The target of the next assay is T8, PTx-S1-220 T153A (Bordetella pertussis strain Tohama I, UniProt P04977 36-255, T153A).
T8 sequence: T1 sequence with T152A, A154E

Another assay has as its target T9, PTx-S1-220 R79A (Bordetella pertussis strain Tohama I, UniProt P04977 36-255, R79A).
T9 sequence: T1 sequence with R78A, A154E

The target of the next assay is T10, PTx-S1-220 Y148A (Bordetella pertussis strain Tohama I, UniProt P04977 36-255, Y148A).
T10 sequence: T1 sequence with Y147A, A154E

B1: monoclonal antibody 1B7 (antibody)
chain: DIQMTQSPALMSASPGEKVTMTCSASSSVSFMYWYQQKPRSSPKPWIYLTSNLPSGVPARFSGSGSGTSYSLTISSMEAEDAATYYCQQWSSHPPTFGSGTKLEIKRGGGGSGGGGSGGGGSGGGGSEVQLQQSGSELVRPGASVKLSCKASGYKFTSYWMHWVKQRPGQGLEWIGNIFPGSGSTNYDEKFNSKATLTVDTSSNTAYMQLSSLTSEDSAVYYCTRWLSGAYFDYWGQGTTLTVSSASGA
notes: also called mAb 1B7; 1B7 mAb
For the molecule B1, the koff in the assay with PTx-S1-220 E155A was found to be 0.0011 s⁻¹; with PTx-S1-220 E210A it was 0.0016 s⁻¹; with PTx-S1-220 E16A it was 0.0016 s⁻¹; with PTx-S1-220 T81A, 0.0017 s⁻¹; with PTx-S1-220 T158A, 0.0013 s⁻¹; in the assay with PTx-S1-220 Y166A it was 0.0014 s⁻¹. The koff in the assay with PTx-S1-220 R39A worked out at 0.003 s⁻¹; with PTx-S1-220 T153A, 0.002 s⁻¹; in the assay with PTx-S1-220 R79A, 0.025 s⁻¹; in the assay with PTx-S1-220 Y148A, 0.029 s⁻¹.
